Measured values as given in publication PMC6078970, “Nonequilibrium self-assembly dynamics of icosahedral viral capsids packaging genome or polyelectrolyte” (Nature Communications, 2018).

Target: the molecule itself
Assay: SAXS (static); purified subunits alone, pH 7.5, ionic strength 0.5 M; radius of gyration 33 Å

B1: cowpea chlorotic mottle virus (CCMV) capsid protein, dimeric subunit (natural protein)
chain: RVVQPVIVEPIASGQGKAIKAWTGYSVSKWTASCAAAEAKVTSAITISLPNELSSERNKQLKVGRVLLWLGLLPSVSGTVKSCVTETQTTAAASFQVALAVADNSKDVVAAMYPEAFKGITLEQLTADLTIYLYSSAALTEGDVIVHLEVEHVRPTFDDSFTPVY
notes: capsid (coat) protein of cowpea chlorotic mottle virus, extracted from purified virions; 90 dimers make the T = 3 capsid; Protein as it stands in native virions; no tag; also called CCMV subunits; subunits; source: CCMV grown in blackeye cowpea leaves; capsid proteins extracted from purified virions (dialysis against 0.5 M CaCl2, centrifugation at 150,000 x g)
For B1, the “stoichiometry N” value was 2.
